Measured values from US20180201654A1 (UNIVERSITY OF SOUTHERN CALIFORNIA, published 2018).

Experiments:
[1] = target: T1, HAUSP (Herpes virus-associated ubiquitin-specific protease), full length (human, UniProt Q93009 1-1102); assay: GST pulldown from transfected cells, immunoblot with anti-HAUSP antibody
T1 construct: also called USP7; Flag-HAUSP

[2] = target: T2, HAUSP TRAF domain (HAUSP^62-205) (human, UniProt Q93009 62-205); assay: ITC, titration against the HAUSP TRAF domain, 20 C
T2 construct: also called TRAF-like domain of HAUSP
T2 sequence (Q93009 62-205): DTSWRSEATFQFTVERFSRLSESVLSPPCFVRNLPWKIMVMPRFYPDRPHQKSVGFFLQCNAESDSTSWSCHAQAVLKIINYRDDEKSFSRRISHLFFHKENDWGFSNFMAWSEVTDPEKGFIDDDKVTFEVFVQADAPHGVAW

[3] = target: T1, HAUSP (Herpes virus-associated …); assay: co-immunoprecipitation from transfected 293T cells, IP: V5, IB: Flag
[4] = target: T1, HAUSP (Herpes virus-associated …); assay: GST pulldown from transfected 293T cells, IB: Flag
[5] = target: T1, HAUSP (Herpes virus-associated …); assay: co-immunoprecipitation from transfected 293T cells, IP: V5, IB: Flag; remark: listed apart in the source

T1 sequence (Q93009 whole entry): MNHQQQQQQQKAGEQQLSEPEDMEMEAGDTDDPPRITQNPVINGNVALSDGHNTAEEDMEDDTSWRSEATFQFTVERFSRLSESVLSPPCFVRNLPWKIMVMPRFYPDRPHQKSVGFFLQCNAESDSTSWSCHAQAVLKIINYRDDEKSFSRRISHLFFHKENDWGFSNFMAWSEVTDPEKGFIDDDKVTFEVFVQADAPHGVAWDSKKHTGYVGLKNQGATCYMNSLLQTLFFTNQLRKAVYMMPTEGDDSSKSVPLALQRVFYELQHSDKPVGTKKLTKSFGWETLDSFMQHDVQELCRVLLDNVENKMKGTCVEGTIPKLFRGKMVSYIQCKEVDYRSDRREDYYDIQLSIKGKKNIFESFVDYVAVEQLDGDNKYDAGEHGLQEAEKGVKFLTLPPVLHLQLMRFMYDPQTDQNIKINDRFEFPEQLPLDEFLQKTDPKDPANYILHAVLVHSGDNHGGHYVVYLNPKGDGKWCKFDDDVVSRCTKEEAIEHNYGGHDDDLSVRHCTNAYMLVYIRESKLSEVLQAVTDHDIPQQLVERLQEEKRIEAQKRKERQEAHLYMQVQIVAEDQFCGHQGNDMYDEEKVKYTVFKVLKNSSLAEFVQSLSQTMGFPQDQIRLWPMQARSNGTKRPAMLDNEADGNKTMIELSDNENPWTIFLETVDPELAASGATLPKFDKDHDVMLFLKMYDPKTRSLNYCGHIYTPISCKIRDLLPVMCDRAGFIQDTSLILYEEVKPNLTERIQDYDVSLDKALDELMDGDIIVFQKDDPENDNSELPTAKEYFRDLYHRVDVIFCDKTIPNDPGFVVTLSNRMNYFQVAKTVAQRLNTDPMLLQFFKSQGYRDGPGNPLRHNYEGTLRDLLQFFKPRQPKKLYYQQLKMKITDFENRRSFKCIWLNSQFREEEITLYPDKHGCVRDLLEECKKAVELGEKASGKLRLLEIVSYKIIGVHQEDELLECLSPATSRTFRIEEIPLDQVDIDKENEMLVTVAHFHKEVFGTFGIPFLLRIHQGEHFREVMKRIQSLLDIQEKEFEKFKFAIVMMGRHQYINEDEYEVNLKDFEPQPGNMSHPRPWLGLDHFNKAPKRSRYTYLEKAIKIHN

B1: GST-vIRF4^202-256 (other)
chain: SVWIPVNEGASTSGMGSSGTRQVTQASSFTWRVPGDPPAPSTLTGPSDPHSSGAG
notes: not shown: GST tag of the pEBG-GST vector
binding result [1]: binds

B2: vIRF4^153-216 (other)
chain: SDTREQSYEEAGAAAPAPPKAPSGLRGRPRKSNRYYNVGDITTEQKAACSVWIPVNEGASTSGM
Ka [2]: 1.84e+06 M⁻¹ | Kd [2]: 540 nM | TΔS [2]: -7.35 kcal/mol | n [2]: 0.82 | ΔG [2]: -8.41 kcal/mol | ΔH [2]: -15.8 kcal/mol

B3: GST-vIRF4^220-236 (other)
chain: GTRQVTQASSFTWRVPG
notes: as for B1
binding result [1]: binds

B4: V5/vIRF4 1-605 (other)
single chain: MPKAGGSEWATLWIIDALENNKFPYFSWFDRNNLLFAAPAPLPAGSDIPPGWYSVYHAFDEECDRVYGPSPVVGQTVYGRFGRLLRGTRRAVVRNDLRYSDTFGGSYVVWQLVRTPFKNCTYCYGAAYGPEKLQRFIQCLLSPPMQTTATRRSDTREQSYEEAGAAAPAPPKAPSGLRGRPRKSNRYYNVGDITTEQKAACSVWIPVNEGASTSGMGSSGTRQVTQASSFTWRVPGDPPAPSTLTGPSDPHSSGAGLPGTAPPKPQHETRLAGTVSGVSGVAQTPGDTGQLAPPMRDGSRLPSTSPWIPACFPWGDLPVTGWWPQGASGLPEKVHPPTTGQFDPLSPRWTYTGIPSSQLNPAAPSWIPPHAQAGTFVGEFSQGAPLAPQGLLPQSGQCASAWLPRRETGAEGACGASTEGRAPQGAASERVYPFEPQPPSAPAPGYAKPSCYNWSPLAEPPATRPIRAPVWHPPVGHAVVPEVRTPLWIPWSSGGAPNQGLSHTQGGASATPSAGAPPTPEVAERQEPSSSGIPYVCQGDNMATGYRRVTTSSGALEVEIIDLTGDSDTPSTTVASTPLPVSGPRVFQPTVLYSAPEPAVNPEVS
binding result [3]: binds

B5: V5/vIRF4 1-758 (other)
single chain: MPKAGGSEWATLWIIDALENNKFPYFSWFDRNNLLFAAPAPLPAGSDIPPGWYSVYHAFDEECDRVYGPSPVVGQTVYGRFGRLLRGTRRAVVRNDLRYSDTFGGSYVVWQLVRTPFKNCTYCYGAAYGPEKLQRFIQCLLSPPMQTTATRRSDTREQSYEEAGAAAPAPPKAPSGLRGRPRKSNRYYNVGDITTEQKAACSVWIPVNEGASTSGMGSSGTRQVTQASSFTWRVPGDPPAPSTLTGPSDPHSSGAGLPGTAPPKPQHETRLAGTVSGVSGVAQTPGDTGQLAPPMRDGSRLPSTSPWIPACFPWGDLPVTGWWPQGASGLPEKVHPPTTGQFDPLSPRWTYTGIPSSQLNPAAPSWIPPHAQAGTFVGEFSQGAPLAPQGLLPQSGQCASAWLPRRETGAEGACGASTEGRAPQGAASERVYPFEPQPPSAPAPGYAKPSCYNWSPLAEPPATRPIRAPVWHPPVGHAVVPEVRTPLWIPWSSGGAPNQGLSHTQGGASATPSAGAPPTPEVAERQEPSSSGIPYVCQGDNMATGYRRVTTSSGALEVEIIDLTGDSDTPSTTVASTPLPVSGPRVFQPTVLYSAPEPAVNPEVSHLPTELERRECVCPGSGERPRVPLVSTYAGDRYAVGGYGPEQSLVPPPLGLPLTLSNLQGEDICTWEEGLGNILSELQEEPSSSTRQATDRRRPRSRSPHGRRTPVSHSGPEKPPSKMFFDPPDSQRVSFVVEIFVYGNLRGTLRREGDAGEA
binding result [3]: binds

B6: V5/vIRF4 1-305 (other)
single chain: MPKAGGSEWATLWIIDALENNKFPYFSWFDRNNLLFAAPAPLPAGSDIPPGWYSVYHAFDEECDRVYGPSPVVGQTVYGRFGRLLRGTRRAVVRNDLRYSDTFGGSYVVWQLVRTPFKNCTYCYGAAYGPEKLQRFIQCLLSPPMQTTATRRSDTREQSYEEAGAAAPAPPKAPSGLRGRPRKSNRYYNVGDITTEQKAACSVWIPVNEGASTSGMGSSGTRQVTQASSFTWRVPGDPPAPSTLTGPSDPHSSGAGLPGTAPPKPQHETRLAGTVSGVSGVAQTPGDTGQLAPPMRDGSRLPSTS
binding result [3]: binds

B7: GST-vIRF4 153-305 (other)
single chain: SDTREQSYEEAGAAAPAPPKAPSGLRGRPRKSNRYYNVGDITTEQKAACSVWIPVNEGASTSGMGSSGTRQVTQASSFTWRVPGDPPAPSTLTGPSDPHSSGAGLPGTAPPKPQHETRLAGTVSGVSGVAQTPGDTGQLAPPMRDGSRLPSTS
binding result [4]: binds

B8: GST-vIRF4 1-153 (other)
single chain: MPKAGGSEWATLWIIDALENNKFPYFSWFDRNNLLFAAPAPLPAGSDIPPGWYSVYHAFDEECDRVYGPSPVVGQTVYGRFGRLLRGTRRAVVRNDLRYSDTFGGSYVVWQLVRTPFKNCTYCYGAAYGPEKLQRFIQCLLSPPMQTTATRRS
binding result [4]: no binding

B9: V5/vIRF4 1-454 (other)
single chain: MPKAGGSEWATLWIIDALENNKFPYFSWFDRNNLLFAAPAPLPAGSDIPPGWYSVYHAFDEECDRVYGPSPVVGQTVYGRFGRLLRGTRRAVVRNDLRYSDTFGGSYVVWQLVRTPFKNCTYCYGAAYGPEKLQRFIQCLLSPPMQTTATRRSDTREQSYEEAGAAAPAPPKAPSGLRGRPRKSNRYYNVGDITTEQKAACSVWIPVNEGASTSGMGSSGTRQVTQASSFTWRVPGDPPAPSTLTGPSDPHSSGAGLPGTAPPKPQHETRLAGTVSGVSGVAQTPGDTGQLAPPMRDGSRLPSTSPWIPACFPWGDLPVTGWWPQGASGLPEKVHPPTTGQFDPLSPRWTYTGIPSSQLNPAAPSWIPPHAQAGTFVGEFSQGAPLAPQGLLPQSGQCASAWLPRRETGAEGACGASTEGRAPQGAASERVYPFEPQPPSAPAPGYAKPSCYNW
binding result [3]: binds

B10: vIRF4 (Kaposi's-sarcoma-associated-herpesvirus vIRF4), full length wild type (other)
chain: MPKAGGSEWATLWIIDALENNKFPYFSWFDRNNLLFAAPAPLPAGSDIPPGWYSVYHAFDEECDRVYGPSPVVGQTVYGRFGRLLRGTRRAVVRNDLRYSDTFGGSYVVWQLVRTPFKNCTYCYGAAYGPEKLQRFIQCLLSPPMQTTATRRSDTREQSYEEAGAAAPAPPKAPSGLRGRPRKSNRYYNVGDITTEQKAACSVWIPVNEGASTSGMGSSGTRQVTQASSFTWRVPGDPPAPSTLTGPSDPHSSGAGLPGTAPPKPQHETRLAGTVSGVSGVAQTPGDTGQLAPPMRDGSRLPSTSPWIPACFPWGDLPVTGWWPQGASGLPEKVHPPTTGQFDPLSPRWTYTGIPSSQLNPAAPSWIPPHAQAGTFVGEFSQGAPLAPQGLLPQSGQCASAWLPRRETGAEGACGASTEGRAPQGAASERVYPFEPQPPSAPAPGYAKPSCYNWSPLAEPPATRPIRAPVWHPPVGHAVVPEVRTPLWIPWSSGGAPNQGLSHTQGGASATPSAGAPPTPEVAERQEPSSSGIPYVCQGDNMATGYRRVTTSSGALEVEIIDLTGDSDTPSTTVASTPLPVSGPRVFQPTVLYSAPEPAVNPEVSHLPTELERRECVCPGSGERPRVPLVSTYAGDRYAVGGYGPEQSLVPPPLGLPLTLSNLQGEDICTWEEGLGNILSELQEEPSSSTRQATDRRRPRSRSPHGRRTPVSHSGPEKPPSKMFFDPPDSQRVSFVVEIFVYGNLRGTLRREGDAGEAMLCSWPVGDTLGHLCQSFVPELLRIPRLTVPSPEQMEILNRVFEGLGHGFPIFCSMSGIYSRNATQVEGWWFGNPNSRYERILRSFSPRVPQQLFNTARYLATTAAIPQTPLSVNPVTCGTVFFGASPASTENFQNVPLTVKIFIGSIWDSLH
binding result [5]: binds
